Data taken from paper PMC5760103, “The translesion DNA polymerases Pol ζ and Rev1 are activated independently of PCNA ubiquitination upon UV radiation in mutants of DNA polymerase δ” (PLoS Genetics, 2017).
Values belong to the binder of their own block, whether it stands above or below them.

Molecular target: T1, Recombinant S. cerevisiae PCNA with an His-Tag (S. cerevisiae, UniProt P15873 1-258)
T1 construct: PCNA (proliferating cell nuclear antigen, gene POL30), S. cerevisiae; also called purified PCNA; source: E. coli (pET28c), purified on a HisTrap column
T1 sequence (looked up): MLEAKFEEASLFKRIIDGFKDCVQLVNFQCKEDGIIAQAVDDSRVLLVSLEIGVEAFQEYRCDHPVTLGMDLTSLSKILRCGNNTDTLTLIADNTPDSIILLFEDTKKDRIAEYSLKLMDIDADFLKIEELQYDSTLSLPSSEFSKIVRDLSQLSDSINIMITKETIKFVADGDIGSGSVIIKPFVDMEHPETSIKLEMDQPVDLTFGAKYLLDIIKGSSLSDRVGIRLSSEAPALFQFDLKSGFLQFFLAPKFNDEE
Test: ITC; VP-ITC; 20–25 μM PCNA in the cell, 270 μM peptide in the syringe; 30°C; buffer T (20 mM Tris pH 7.5, 50 mM NaCl, 20 mM β-mercaptoethanol); single set of independent binding sites model
Conditions: both partners purified

Kd: > 50000 nM
B1: pPol31 317–337 (peptide)
peptide: KSLFDKSLESYFNGSNKEILN
notes: Pol31 (B subunit of DNA polymerase delta), S. cerevisiae, residues 317-337 with the proposed motif LxxYF; also called Pol31 peptide; non-canonical Pol31 PIP motif peptide; source: synthetic peptide, bought: Genecust, 95% purity

Kd: 310 nM | dH: -6.4 kcal/mol
B2: pMsh6 22–43 (peptide)
peptide: QKKMKQSSLLSFFSKQVPSGTP
notes: Msh6, S. cerevisiae, residues 22-43 with the canonical PIP motif; also called Msh6 peptide; canonical PIP motif of Msh6; source: synthetic peptide, bought: Genecust, 95% purity

Kd: 460 nM | dH: -4.45 kcal/mol
B3: pPol32 333–350 (peptide)
peptide: KRLKKQGTLESFFKRKAK
notes: Pol32 (C subunit of DNA polymerase delta), S. cerevisiae, residues 333-350 (the C-terminal end; K is the last residue of Pol32) with the PIP motif QxxLxxFF; also called Pol32 peptide; Pol32 PIP motif peptide; source: synthetic peptide, bought: Genecust, 95% purity
